B1: ZNF263 (parent)
chain: FGGNPRFLSLHRAHLGEEAHKCLE

Variants of: B1
Assay: protein stability index of a GFP-peptide fusion (GPS, HEK-293T) (PSI 1-6); higher = more stable
Conditions: c terminus: a fixed tail appended
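Further: lentivirally expressed fusions sorted by FACS into six bins by GFP to DsRed ratio, PSI derived from sequencing read proportions per bin multiplied by bin number.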

Variant	protein stability index
FGGNPRFLSLHEAHLGEEAHKCLE [R12E]	1.76
FGGNPRFLSLHFAHLGEEAHKCLE [R12F]	2.35
FGGNPRFLSLHGAHLGEEAHKCLE [R12G]	1.81
FGGNPRFLSLHHAHLGEEAHKCLE [R12H]	1.71
FGGNPRFLSLHIAHLGEEAHKCLE [R12I]	1.84
FGGNPRFLSLHKAHLGEEAHKCLE [R12K]	1.61
FGGNPRFLSLHLAHLGEEAHKCLE [R12L]	1.56
FGGNPRFLSLHMAHLGEEAHKCLE [R12M]	2.36
FGGNPRFLSLHNAHLGEEAHKCLE [R12N]	2.49
FGGNPRFLSLHPAHLGEEAHKCLE [R12P]	1.46
FGGNPRFLSLHQAHLGEEAHKCLE [R12Q]	2.22
FGGNPRFLSLHSAHLGEEAHKCLE [R12S]	2.17
FGGNPRFLSLHTAHLGEEAHKCLE [R12T]	1.95
FGGNPRFLSLHVAHLGEEAHKCLE [R12V]	3.14
FGGNPRFLSLHWAHLGEEAHKCLE [R12W]	1.58
FGGNPRFLSLHYAHLGEEAHKCLE [R12Y]	1.24
FGGNPRFLSLHRCHLGEEAHKCLE [A13C]	1.71
FGGNPRFLSLHRDHLGEEAHKCLE [A13D]	1.81
FGGNPRFLSLHREHLGEEAHKCLE [A13E]	1.66
FGGNPRFLSLHRFHLGEEAHKCLE [A13F]	2.52
FGGNPRFLSLHRGHLGEEAHKCLE [A13G]	1.99
FGGNPRFLSLHRHHLGEEAHKCLE [A13H]	2.26
FGGNPRFLSLHRIHLGEEAHKCLE [A13I]	1.35
FGGNPRFLSLHRKHLGEEAHKCLE [A13K]	1.94

Variant	protein stability index
FGGNPRFLSLHRLHLGEEAHKCLE [A13L]	1.43
FGGNPRFLSLHRMHLGEEAHKCLE [A13M]	2.21
FGGNPRFLSLHRNHLGEEAHKCLE [A13N]	2.04
FGGNPRFLSLHRPHLGEEAHKCLE [A13P]	1.56
FGGNPRFLSLHRQHLGEEAHKCLE [A13Q]	1.48
FGGNPRFLSLHRRHLGEEAHKCLE [A13R]	2.08
FGGNPRFLSLHRSHLGEEAHKCLE [A13S]	1.71
FGGNPRFLSLHRTHLGEEAHKCLE [A13T]	1.98
FGGNPRFLSLHRVHLGEEAHKCLE [A13V]	1.79
FGGNPRFLSLHRWHLGEEAHKCLE [A13W]	1.81
FGGNPRFLSLHRYHLGEEAHKCLE [A13Y]	1.72
FGGNPRFLSLHRAALGEEAHKCLE [H14A]	1.74
FGGNPRFLSLHRACLGEEAHKCLE [H14C]	1.95
FGGNPRFLSLHRADLGEEAHKCLE [H14D]	2.56
FGGNPRFLSLHRAELGEEAHKCLE [H14E]	1.15
FGGNPRFLSLHRAFLGEEAHKCLE [H14F]	2.55
FGGNPRFLSLHRAGLGEEAHKCLE [H14G]	1.95
FGGNPRFLSLHRAILGEEAHKCLE [H14I]	3.64
FGGNPRFLSLHRAKLGEEAHKCLE [H14K]	1.81
FGGNPRFLSLHRALLGEEAHKCLE [H14L]	1.46
FGGNPRFLSLHRAMLGEEAHKCLE [H14M]	1.69
FGGNPRFLSLHRANLGEEAHKCLE [H14N]	1.49
FGGNPRFLSLHRAPLGEEAHKCLE [H14P]	1.59
FGGNPRFLSLHRAQLGEEAHKCLE [H14Q]	2.6

Variant	protein stability index
FGGNPRFLSLHRARLGEEAHKCLE [H14R]	1.24
FGGNPRFLSLHRASLGEEAHKCLE [H14S]	1.35
FGGNPRFLSLHRATLGEEAHKCLE [H14T]	3.21
FGGNPRFLSLHRAVLGEEAHKCLE [H14V]	1.96
FGGNPRFLSLHRAWLGEEAHKCLE [H14W]	2.42
FGGNPRFLSLHRAYLGEEAHKCLE [H14Y]	1.86
FGGNPRFLSLHRAHAGEEAHKCLE [L15A]	1.83
FGGNPRFLSLHRAHCGEEAHKCLE [L15C]	3.76
FGGNPRFLSLHRAHDGEEAHKCLE [L15D]	2.46
FGGNPRFLSLHRAHEGEEAHKCLE [L15E]	1.7
FGGNPRFLSLHRAHFGEEAHKCLE [L15F]	1.27
FGGNPRFLSLHRAHGGEEAHKCLE [L15G]	1.89
FGGNPRFLSLHRAHHGEEAHKCLE [L15H]	2.33
FGGNPRFLSLHRAHIGEEAHKCLE [L15I]	1.54
FGGNPRFLSLHRAHKGEEAHKCLE [L15K]	2.06
FGGNPRFLSLHRAHMGEEAHKCLE [L15M]	1.62
FGGNPRFLSLHRAHNGEEAHKCLE [L15N]	1.7
FGGNPRFLSLHRAHPGEEAHKCLE [L15P]	1.94
FGGNPRFLSLHRAHQGEEAHKCLE [L15Q]	1.86
FGGNPRFLSLHRAHRGEEAHKCLE [L15R]	2.05
FGGNPRFLSLHRAHSGEEAHKCLE [L15S]	1.73
FGGNPRFLSLHRAHTGEEAHKCLE [L15T]	1.55
FGGNPRFLSLHRAHVGEEAHKCLE [L15V]	1.34
FGGNPRFLSLHRAHWGEEAHKCLE [L15W]	2.28

Variant	protein stability index
FGGNPRFLSLHRAHYGEEAHKCLE [L15Y]	2.58
FGGNPRFLSLHRAHLAEEAHKCLE [G16A]	2.1
FGGNPRFLSLHRAHLCEEAHKCLE [G16C]	1.83
FGGNPRFLSLHRAHLDEEAHKCLE [G16D]	1.63
FGGNPRFLSLHRAHLEEEAHKCLE [G16E]	2.51
FGGNPRFLSLHRAHLFEEAHKCLE [G16F]	1.9
FGGNPRFLSLHRAHLHEEAHKCLE [G16H]	1.7
FGGNPRFLSLHRAHLIEEAHKCLE [G16I]	2.06
FGGNPRFLSLHRAHLKEEAHKCLE [G16K]	1.62
FGGNPRFLSLHRAHLLEEAHKCLE [G16L]	2.55
FGGNPRFLSLHRAHLMEEAHKCLE [G16M]	2.19
FGGNPRFLSLHRAHLNEEAHKCLE [G16N]	1.92
FGGNPRFLSLHRAHLPEEAHKCLE [G16P]	2.12
FGGNPRFLSLHRAHLQEEAHKCLE [G16Q]	2.76
FGGNPRFLSLHRAHLREEAHKCLE [G16R]	1.64
FGGNPRFLSLHRAHLSEEAHKCLE [G16S]	2.06
FGGNPRFLSLHRAHLTEEAHKCLE [G16T]	1.94
FGGNPRFLSLHRAHLVEEAHKCLE [G16V]	2.42
FGGNPRFLSLHRAHLWEEAHKCLE [G16W]	1.87
FGGNPRFLSLHRAHLGAEAHKCLE [E17A]	1.42
FGGNPRFLSLHRAHLGCEAHKCLE [E17C]	2.37
FGGNPRFLSLHRAHLGDEAHKCLE [E17D]	1.36
